Common to all, as to test: cell-based or functional assay
In one assay the target is Arp2/3 complex (human) (UniProt P61158).
The target in assay [1] is full length human N-WASP (Myc-N-WASP-TAP) (human).
For assay [2], the target named is full length human WASP (Myc-WASP-TAP) (human).

Some results are limits rather than exact numbers.

Data on three substances can be found in patent publication US20060024786A1, “WASP and N-WASP constructs and methods of expressing such constructs” (Cytokinetics, Inc., priority 2004, published 2006).

Regarding full length human WASP (Myc-WASP-TAP), in the assay with Arp2/3 complex (human), the activity relative to 105 WASP (actin polymerization, EC50 comparison) worked out at 20 times; the concentration giving maximal barbed ends (500 nM Cdc42, 2.5 nM Arp2/3, 3.5 uM actin) came to 3 nM; the potency relative to the VCA/WA domain (actin polymerization, EC50 comparison) is above 70 times.
As to GST_NCK2, in assay [1], the Barbed ends % of max. (after subtracting baseline) was found to be 78%; the Barbed ends, nM (pyrene-actin polymerization assay) came to 3.5 nM; the EC50, nM (activation of actin polymerization) was determined as 7 nM. In addition, in assay [2], the Barbed ends % of max. (after subtracting baseline) stood at 50%; the Barbed ends, nM (pyrene-actin polymerization assay) was found to be 2.6 nM; the EC50, nM (activation of actin polymerization) came to 12 nM.
For “N_GST_tev_Cdc42 GTP (bacterial GST tagged Cdc42 protein) (enzyme)”, the EC50, nM (activation of actin polymerization) in assay [1] amounted to 287 nM; in assay [2], 16 nM.
